Experimental data reported in PMC10933337, “RhoGDI phosphorylation by PKC promotes its interaction with death receptor p75^NTR to gate axon growth and neuron survival” (EMBO Reports, 2024).

Legend:
p75NTR [1] = target: p75NTR (UniProt Q9Z0W1); assay: p75NTR IP, Flag-RhoGDI immunoblot; settings: reference: wild type RhoGDI; sites S34
p75NTR [2] = target: p75NTR (UniProt Q9Z0W1); assay: p75NTR IP, Flag immunoblot; settings: reference: RhoGDI-59 wild type, PMA; sites S34
[3] = target: T1, human p75^NTR JXT domain (K273-D332) (human, UniProt P08138 273-332); assay: NMR titration; unlabeled p75NTR JXT titrated to 15N-labeled RhoGDI NTD S34D, [1H-15N] HSQC, 28 °C, 10 mM PIPES pH 6.8; 0.3 mM RhoGDI NTD and 1.5 mM p75NTR JXT; settings: both partners purified
T1 construct: juxtamembrane domain of human p75NTR, K273-D332, ~6.6 kDa; Cloned in a pET-32a-derived vector; unlabeled or 15N,13C-labeled for NMR; source: E. coli BL21 (DE3), purified (Ni-NTA, TEV cleavage, gel filtration, MonoS ion exchange)
T1 sequence (looked up): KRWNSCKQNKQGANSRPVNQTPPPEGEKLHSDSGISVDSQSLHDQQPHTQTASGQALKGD

Molecule: RhoGDI (from UniProt Q99PT1) S34A
- binding against the reference (p75NTR [1]): weaker

Molecule: RhoGDI RhoGDI-59, 59 N-terminal residues (fused to GST) (from UniProt Q99PT1) RhoGDI-59 S34A, PMA
- binding against the reference (p75NTR [2]): lost

B1: human RhoGDI NTD^S34D (A2-A60) (domain or fragment, UniProt P52565 2-60, looked up)
chain: AEQEPTAEQLAQIAAENEEDEHSVNYKPPAQKDIQEIQELDKDDESLRKYKEALLGRVA
notes: N-terminal domain of RhoGDI, A2-A60, ~6.8 kDa, with the phosphorylation-mimetic mutation S34D; Cloned in a pET-32a-derived vector; 15N- or 15N,13C-labeled or unlabeled for NMR; source: E. coli BL21 (DE3), purified (Ni-NTA, TEV cleavage, gel filtration, MonoQ ion exchange)
- binding result [3]: binds
